Drawing on patent publication US20240207421A1, “NERVE TARGETING PEPTIDES AND METHODS OF USE” (ALUME BIOSCIENCES, INC., priority 2020, published 2024), this text covers Count for 71 molecules.

The test concerns the target Laminin 421/521. The test can be described thus: phage display, NGS count.
With SHDVANGTSVRT, the Count turned out to be 29.

Molecule ALKIGPETTIYM had a Count of 35. The result for HSTYAPG reads 33.

In turn, NHDQGSLTRWRS gave a Count of 31. The result for DSLYRGMHQPRI reads 29; that for TLKAGTRANDGV, 32; that for EVERILTPHVNN, 29. In turn, CLHNGQRSC displayed a Count of 37. The result for WAYTDYM reads 35. Regarding LGHQNGGRADMW, the Count turned out to be 35.

With QALRTNYSPLNS, the Count amounted to 32. As for CNSWKAAKC, the figure is 29. For the molecule WRSPLTT, the Count was determined as 30. Turning to CKSPAIKGC, the Count came out at 29. In the case of GPLLFRG, the Count amounted to 30.

The molecule VPSYILR had a Count of 30. Turning to NGHEVQSRAANR, the Count came out at 29.

KASIAYD had a Count of 30. In turn, DVIHSSRGAYFE came in with a Count of 36. The molecule CTWKHRDNC yielded a Count of 30. On to EYVKFSHSPRTY, for which the Count turned out to be 31.

For the molecule NWTHLGVARLQP, the Count was determined as 36. Take SVESNSKLTMPR: the Count is 29.

Molecule CSSQAKRSC showed a Count of 31. MTNSGAK registered a Count of 35. The result for CKSERGPEC reads 30; that for QTFGYSMFNVRT, 30; that for QINWKQADKNAD, 33. As for RNLHYPLNHPFM, the figure is 30; as for VVPSWPSVHRPP, 31. WGWNGANMSPRG displayed a Count of 31.

GDAQILM displayed a Count of 38.

On to SLNTTWVSPMMK, for which the Count came to 37. In turn, CQTSGHHQC showed a Count of 31. As for DIMKSPRSNLRS, the figure is 37. CSRAGLSAC yielded a Count of 30. The result for QGWEFQVPARHS reads 30; that for TFGSGRSMPIQY, 34. In the case of AHAAGRDMRQGT, the Count was found to be 36.

As for GLLDWGSLQGGN, the Count is 30. As for LGYGQGTPHRSN, the figure is 30. As for GHRTLVTSERYL, the figure is 38. As for QTFHEYLNPARG, the figure is 37; as for WSPANGWRHQTI, 36. LGSSRSPSSFLG came in with a Count of 29.

On to FNSDSRSTHQED, for which the Count was 29. For LPMLRHS, the Count was determined as 32.

CHNADNNGC: the Count was 32. The result for CGETTAGKC reads 33; that for NDTGRHASGISK, 32; that for SLLSVVNTSSKS, 31. TAPRWTQ registered a Count of 30. Molecule GGWQSLWDKPEH displayed a Count of 31. Consider CQGWPRPMC, for which the Count was found to be 30. In the case of EDRMMTYRYTST, the Count is 29. As for GPMLKNLSDAVT, the figure is 31; as for GSPEKRT, 30; as for IDQSGLQKSGMK, 29. As to VYRNGGGLPLTA, the Count is 34. The result for AQRMNQA reads 38. As for ALPWQSGVHGTK, the figure is 34; as for IDLSLRS, 29; as for SPDRTNWGWQTN, 29. As for SYDGTMLKQVRL, the figure is 36; as for HPAWADFFTMSS, 29; as for CTAWTRQEC, 31. Regarding WQWRSTELGYRY, the Count came out at 36. WPMMQTR: the Count came out at 29. As for CTPRSATLC, the figure is 37; as for QGWKDRLPIWRY, 29. As for DWTQVRVTNWFL, the figure is 35.
